Experimental data reported in US6805863B2, “Methods of modulating immune coagulation” (Trillium Therapeutics Inc., priority 1997, dated 2004).
Values joined by “and” are separate entries in the source; they are usually repeats but may differ in a detail not shown here. Identical values can stand only once. Marks after values point to notes of the source that are not given here.

Legend:
DBA/2-mated CBA/J mice = assay: Fetal loss in DBA/2-mated CBA/J mice: role of asialoGM1+ NK cells, macrophages and cytokines; assay type: in vivo, mouse
Source text: Inbred mice of strains CBA/J and DBA/2 were obtained from Iffa Credo. France C57B1/6J and DBA/2 mice were obtained from the Jackson Laboratories, Bar Harbor, Me. C57B1/6 mice with knockout of the interferon response element IRF-1 were generated as previously described (Duncan, G. S. et al., J. Exp. Med. 184:2043 (1996)) and bred in at the Ontario Cancer Institute, Toronto. CBA/J mice were maintained in the Paris colony under conventional open-top wire cage conditions with food and water ad lib and a 12 hour light-dark cycle. Mice in the Toronto colony were maintained in a barrier facility. Female CBA/J, C57B1/6 or C57B1/6 IRF−/− mice were mated by overnight cohabitation with a DBA/2J male, and the morning of sighting a vaginal plug was defined as day 0.5 of pregnancy.
Pregnant CBA/J mice were depleted of NK cells by injection of 1 ml rabbit IgG anti-asialoGM1 antibody (Immunocorp, Richmond, Va.) ip on day 6.5 of gestation; phosphate buffered saline (PBS) was used as a control as it has been previously shown to be equivalent to non-immune rabbit IgG (Clark, D. A., Crit. Rev. Immunol. 11:215 (1991)). Macrophage depletion was performed by ip injection of 100 mg/kg silicon dioxide twice a week for 4 weeks prior to mating, as described in Baek, H-S. and J-W. Yoon (J. Virol. 64:5708 (1990)). Affinity-purified rabbit IgG neutralizing antibody to mouse procoagulant (fg12-prothombinase) was prepared as previously described (Ding, J. W. et al., J. Exp. Med. (1997); Dackiw, A. P. B. et al., Arch. Surg. 131:1273 (1996)); the mice were given a ip injection of 200 μl of a 1/50 dilution of a 5.5 mg/ml preparation of anti-prothombinase or control rabbit antibody each day beginning on day 3.5 of gestation. Hormonal support of pregnancy sufficient to replace ovarian function was provided in some experiments by injecting 6.7 ng 17 β-estradiol+1 mg progesterone in 0.1 ml oil im daily beginning on day 4.5 of gestation (Michael, S. D. et al., Biol. Reprod. 12:400 (1975)). One hundred […] of rat monoclonal IgG2b anti-mouse granulocyte antibody RB6-8C5 (Pharmingen) (Stoppacciaro, A. et al., J. Exp. Med. 178:151 (1993)) or isotype control was injected ip on either day 6.5 or on day 8.5 of pregnancy. TNF-α (6 and R&D Systems) 1000 or 2000 units and/or murine recombinant γ-interferon (6 and R&D Systems) 1000 units was injected ip on day 7.5 of pregnancy. On day 13.5 of pregnancy, the mice were sacrificed and the number of resorbing and healthy embryos was counted. In some experiments, the uteri were snap frozen, 5 micron sections were cut, and the tissues were stained with rat monoclonal F4/80 antibody (Caltag, Tebu, France) to macrophages. Briefly, tissue sections were incubated with a 1/30 dilution of F4/80 in PBS for 30 minutes, and binding was detected using peroxidase-streptavidin with biotin-labelled anti-rat IgG2b second antibody (Secrotec) (Kachkache, M. et al., Biol. Reprod. 45:860 (1991)).
Four to ten mated mice per treatment group were used. The significance of differences in the pooled resorption rate was tested by c^2 of Fisher's Exact test where appropriate.

[1] = tested on: recalcified platelet-poor normal human plasma; assay: One-stage clotting assay (procoagulant activity, PCA); assay type: biochemical
Protocol: This assay for fg12 prothrombinase was used to directly measure procoagulant activity. High 5 cells infected with recombinant virus expressing the mfg12 fusion protein were subjected to cycles of freeze thawing. They were then assayed for their ability to accelerate the spontaneous clotting time of recalcified platelet-poor normal human plasma as previously described (Levy & Edgington, 1980). Results were quantitated by comparison with serial dilutions of standard rabbit brain thromboplastin. Activities from cells infected with the recombinant virus were compared with those uninfected and wild-type virus infected, and with the purified protein alone. Proteins involved in the coagulation pathway require a phospholipid bilayer for functional activity; therefore purified protein was reconstituted into […] to determine their PCA activity. Additional PCA assays were performed with human plasma deficient in coagulation factors II, V, VII, VIII, X, and XII to determine the nature (factor dependence) of the expressed PCA.

125I-prothrombin = assay: Prothrombin cleavage assay; assay type: biochemical; settings: FIG. 22
Protocol: To determine if the expressed fusion protein acts as a direct prothrombinase, the prothrombin cleavage assay was performed as previously described (Schwartz et al., 1982). 125I-prothrombin was incubated with High 5 cells, both infected or uninfected with the recombinant virus. Purified mfg12 fusion protein was also studied to determine its ability to cleave prothrombin. Human Factor Xa in the presence of Russell's viper venom (RVV) was used as a positive control. Samples were run on 10% SDS-PAGE and analyzed by autoradiography for 125I-prothrombin and their cleavage products.

[2] = Expt 1, anti-asialoGM1 pretreated (NK depleted) mice, 1000 u day 7.5
[3] = Expt 1, anti-asialoGM1 pretreated (NK depleted) mice, 2000 u day 7.5
[4] = Expt 1, day 6.5 PBS, 1000 u ip day 7.5, day 13.5 assay
[5] = Expt 1, day 6.5 PBS, 2000 u ip day 7.5, day 13.5 assay
[6] = Table 9, 20 ng added to H5 cells + RV
[7] = Table 9, 100 ng added to H5 cells + RV
[8] = Table 9, 3 μg reconstituted into H5 cells
[9] = Table 9, purified protein 3 μg alone
[10] = Expt 2, anti-asialoGM1 pretreated (NK depleted) mice, 1000 u IFN-γ, TNF-α 1000 u or 2000 u pooled
[11] = Expt 2, day 6.5 PBS, 1000 u IFN-γ, TNF-α 1000 u or 2000 u pooled, day 7.5

Molecule: TNF-α
- % fetal losses (DBA/2-mated CBA/J mice; [2]): 16%^e
- resorptions/total (DBA/2-mated CBA/J mice; [2]): 12/63
- % fetal losses (DBA/2-mated CBA/J mice; [3]): 22%^e
- resorptions/total (DBA/2-mated CBA/J mice; [3]): 12/55
- % fetal losses (DBA/2-mated CBA/J mice; [4]): 72%^b
- resorptions/total (DBA/2-mated CBA/J mice; [4]): 43/60
- % fetal losses (DBA/2-mated CBA/J mice; [5]): 89%^c
- resorptions/total (DBA/2-mated CBA/J mice; [5]): 57/64

B1: Purified protein: purified murine fg12 fusion protein with six histidine residues and an enterokinase site at the N-terminus, baculovirus expressed (protein)
chain: VEEHNLTEGLEDASAQAACPARLEGSGRCEGSQCPFQLTLPTLTIQLPRQLGSMEEVLKEVRTLKEAVDSLKKSCQDCKLQADDHRDPGGNGGNGAETAEDSRVQELESQVNKLSSELKNAKDQIQGLQGRLETLHLVNMNNIENYVDNKVANLTVVVNSLDGKCSKCPSQEHMQSQPVQHLIYKDCSDHYVLGRRSSGAYRVTPDHRNSSFEVYCDMETMGGGWTVLQARLDGSTNFTREWKDYKAGFGNLEREFWLGNDKIHLLTKSKEMILRIDLEDFNGLTLYALYDQFYVANEFLKYRLHIGNYNGTAGDALRFSRHYNHDLRFFTTPDRDNDRYPSGNCGLYYSSGWWFDSCLSANLNGKYYHQKYKGVRNGIFWGTWPGINQAQPGGYKSSFKQAKMMIRPKNFKP
modifications: left off: small tags and cut ends
notes: purified murine fg12 fusion protein with six histidine residues and an enterokinase site at the N-terminus, baculovirus expressed
- PCA ([1]; Table 7, purified protein 3 μg, uninfected High 5 cells <1): <1 Miliunits/2 × 10^6 cells
- PCA Time ([1]; Table 7, purified protein 3 μg, uninfected High 5 cells >240): 220 s
- PCA Milliunits [1, 6]: 1254 mU/2 × 10^6 cells
- PCA Time [1, 6]: 57 s
- PCA Milliunits [1, 7]: 1543 mU/2 × 10^6 cells
- PCA Time [1, 7]: 54 s
- PCA Time ([1]; Table 9, 3 μg added to H5 cells + RV (printed for two lines)): 50 s and 34 s
- PCA Milliunits [1, 8]: 3634 mU/2 × 10^6 cells
- PCA Time [1, 8]: 42 s
- PCA Milliunits [1, 9]: <1 mU/2 × 10^6 cells
- PCA Time [1, 9]: 220 s
- PCA after reconstitution of purified protein into insect cells ([1]; preliminary results): partial PCA activity recovery
- PCA detected ([1]; purified soluble protein alone): no activity
- prevention of PCA expression by cells infected with recombinant virus ([1]; soluble mfg12 protein added to cell lysate): incapable of preventing the clotting induced by the cell lysate
- cleavage of 125I-prothrombin (SDS-PAGE autoradiography) (125I-prothrombin): no prothrombin cleavage

B2: IFN-γ: murine recombinant γ-interferon (protein, UniProt P01580 23-155, looked up)
Interferon gamma: HGTVIESLESLNNYFNSSGIDVEEKSLFLDIWRNWQKDGDMKILQSQIISFYLRLFEVLKDNQAISNNISVIESHLITTFFSNSKAKKDAFMSIAKFEVNNPQVQRQAFNELIRVVHQLLPESSLRKRKRSRC
- % fetal losses (DBA/2-mated CBA/J mice; [10]): 12%^e
- resorptions/total (DBA/2-mated CBA/J mice; [10]): 12/98
- % fetal losses (DBA/2-mated CBA/J mice; [11]): 85%^g
- resorptions/total (DBA/2-mated CBA/J mice; [11]): 79/93
